# In the supplement of paper PMC9170038:
# Tested on: K4 kissing-loop RNA reporter
# Test: apparent KD of K4 kissing-loop reporter; higher = weaker reporter binding
# Settings: Eterna round: R107; input ligand: none
# Procedure: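 RNA-MaP round R107: designed RNA switches with theophylline, tryptophan, arginine or FMN aptamers are transcribed on-chip within common flanks. They are titrated with a labelled K4 kissing-loop RNA reporter in RNA-MaP buffer (100 mM Tris pH 7.5, 80 mM KCl, 4 mM MgCl2), without ligand or with the indicated ligand. Median apparent KD per design.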
# 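Further: bound reporter read as fluorescence of individual clusters on recovered sequencing chips by microscopy, with normalized cluster intensities fitted with a binding model.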
row,Sequence,apparent KD of K4 kissing-loop reporter [nM]
1,AACCGAGGUAAUCCACAAAGAUAACAUGAUACCAGAUAUAUAAAUAUCCCUUGGCAGCAUGGCAUGAGUGAUGUUCAUGUGUCUU [KL-SSTheo-A10],460
2,GGAAGAAGUGGUGUUGAUUAAGAAGCGGAAGGAGCGCCGAAGAAGGCAGGUAGGUCGCCGAAAUAUAGUGAUGUUAUAUAAAAGG [ExArg.A],229
3,CGUGCCCGGCCGGAUACCAGUGACCCGCUGGGAACCGCGGGCCCAGAGUGAUGUUCGGGACACCCUUGGCAGCCGCCUGGGCGGC [#2 Same State - Theophylline B Attempt #13 (HarryS)],1080
4,AUUCUUAUAAUAACACUAUAUACAACUGAAGGAGCGACAAUAAAGUCAGGUAGGUCGCAGAAUAAAUGAGUGAUGUUCAUUUUUA [JR_ExcArginiA_Sub011],129
5,GCGCGUCAUGUCAGCGGUGACACUGUCGAUACCAGUGCCGGAAGGCGCCCUUGGCAGCGACGUGCUGGAGUGAUGUUCCAGCGUU [#2 Exclusion - Theophylline A Attempt #28 (HarryS)],151
6,AAGCAGUCACUCGUAUCCAUCGAAGAUGGUCGAGGACCGGUACGGCCGCCACUCGGAGUGAUGUUCCGAAGACUGCAAAAUAAAA [#SwitchBubble 13],250
7,UGGUUUGGAAGUGAUGUUUCUAUAAGUGAUACCAGACAAAAGAAAGUCCCUUGGCAGCACAAUGAUGCCAAGGAAACGGCAUGAU [#15 K4 Theophylline A Same State],174
8,UAGCGUAUCAGAGGAUAUGAUAUGUUAUGCAGUGAUGUUGCAUGAUGUAGCAGAAUUCUGAGUGUAUCAGAAGGCUGAUAUGCUA [FMN B Ex t3],90.5
9,GCCGUAGAUUGAAGGAGCGUUCUUACUGAGUACGGCAACCGGAAGUGAUGUUUCCAGGUGGAACAGGUAGGUCGCAAUCUACGGC,105
10,AAGUGAUGUUGUAGUGAUGUUGUGAUGUUGCAGGAUAUAUAGUGAUGUAGAAGGGUAUGUGCAGUGUUGUUAUUUGAGUGUUGAU [zffdmullin],78.7
11,GGAUAGGAUAGAGGAUAUGGAAAACACAGAAAUAACUUGUUGUGUUUAUCCAUAGGGAGUGAUGUUCCAGAAGGCUGUCCUAUCG [MatMod 20 - Jieux - Exclusion - FMN B],192
12,CCGCUACCCUCAGGAUAUUAAAUAUUAGUGAUGUUAAUAAACCGAUGGCGAAAGCCAUCGGUAUGUUGAGAAGGGAGGGUAGCGG [whbob_SS_FMNB__2th196],766
13,UUUGUAUAGGGAAGGAGCGUGAAUGAGAAAGAAUAUAGUGAUGUUAUAUAGAAGAAAGAAUCACAGGUAGGUCGCCCGGAGGAGG [SSArgB.G],371
14,UUAGUCAGAUUAUUAUUAGCCUGCGAGACUAAGGAUAUCCGAAUUCGGAGAAGGUAGUGAUGUUACUUUGGCAGGCACUGACAUU [AK8 Exc FMN A],727
15,CACGGAGUGAUGUUCCGACCGAGGAACGAUACCAGACAAGUAUACGUCCCUUGGCAGCGUUUCUUAUAUAGUCAACGUUACCGUA [Theo A Ex t3],507
16,UUAGUCUAGAGAAGGAGCGAGUGAUGUUCGCAGCCCAAAUAAUAAUAAUAAUAAGGGCAUCCUCAGGUAGGUCGCUCUAGACAUU [AK5 Exc Arginine B],334
17,GGCUUAUUCUAUGAUACCAGCGUCACAUCGGGACUGCGCACGCAGCAGGCGAGUGAUGUUCGCCCUUGGCAGCAUCUCGGCGACU [theeternabot_exclusion_KL_Theo_B_26],249
18,UUUUUGGAGAAUUAUAGUGAUGUUAUGAAGAAGGAUAUCUAAAGAUGGAGAAGGUUUAAUAGUUAAGGGAUGGAGGGUGGGUGGG [ExFMNA.P],293
19,GUAGCACUUGAUAGUGAUGUUAUCAAGGACAAGGAUAUCAUCUCAAUGAGAAGGUGUCCUUGAUAACAGCUACGGGAAUAUCCCA [Omei KL FMN A Exc D v1],288
20,ACACUUUACGUAGGAUAUGCGACGAGUGAUGUUCGUCAGGCGGCUUUAGCUUAAUCAGGCCGCCUAGCAGAAGGACGGGCAGUGU [Zaretiesre],199
21,AAAAUAAAUCAGUGAUGUUGGUAUCCGGAUACCAGCGAUAAUCAUCGCCCUUGGCAGCCGUGGACGUACAAAAUAAGUACGUCCU [MatMod 16 - Jieux - Same State - Theophylline A],168
22,UAGGAGUGAUGUUCCUAUAGCAGGUAGGAAGGAGCGCCCAUUUGGGCAGGUAGGUCGCCUACCGGCCCUAAGUUAAACCUUAGGC [Rariar],92.6

# Same assay, conditions: Eterna round: R107; input ligand: theophylline 20 uM
row,Sequence,apparent KD of K4 kissing-loop reporter [nM]
1,UGUGAACAAAAGUAGAGUGGACCACUAUAGCGAGGACCGGUACGGCCGCCACUCGUACAUGUAUUCAGUGAUGUUGAAAUGAGCU [whbob_EX_Tryp_A_t15],362
2,GUCCCGAGUGAUGUUCGGGUCGUUUGGGAAGGAGCGCCCGGAAGGGCAGGUAGGUCGCCCGGACCCUGCAGGUAACUGUUGGGCC [#2 Same State - Arginine A Attempt #19 (HarryS)],215
3,UUUGGUUUCUCGGCCGCCACUCGUGGGAAAUGGGCCUCAGGGAUAUAGUGAUGUUAUGUAAAGAAGAGGACCGGGAGAAGGAAGG [ExTryptoB.Dl],208
4,AAACGCUGUGAAUAACACAGCGAAAAUUCGCGAGGACCGGUACGGCCGCCACUCGCUAACUGCGAGUGAUGUUCGAUAAUAAAAU [Mat - Mod of OpenEnded 3 - D11],210
5,CCGGCCCGGCCGGAUACCAGUGCGCCGCUGGGAACUGCGGGCCCAGAGUGAUGUUCGGGACACCCUUGGCAGCCGCCUGGGUCGC [#2 Same State - Theophylline B Attempt #25 (HarryS)],360
6,ACGUGCACUAGUGAUGUUAGAAAAUACGAAGGAGCGGGCGAAAGCCCAGGUAGGUCGCGUAAUAGCACGAGCCACGAAAGUGGCA,447
7,UAUCUUUACUGAAGGAGCGAGCAUUUUGGAGUGAUGUUCCGAGCGAGUGAUGUUCGCAUAGCUCAGGUAGGUCGCAGUGGGAAAA [Same State Arginie B GF 15],162
8,UCGAGUUGACGAAAAGUCAACUCGUGAGAUACCAGUGACGAAAGUCACCCUUGGCAGCUCACUGCCAGUGAUGUUGGUGUAUAGA [#06 K4 Theophylline A Same State],996
9,GAUUUAGAGGCGGCCGCCACUAGUGAUGUUAGUGAUGUUUGAUACUGUAUAUAUCGGCGUGUAGAUAGGACCGGGCCUGAUGGAG [drrdmullin],210
10,AAGUAGCUCUCGGCCGCCACUCCUCAGUGAUGUUGAGAUAUUAAUUGCCAAUUGGCGUAUUUAAAGAGGACCGGGAGAGCUACAA [AK3 SS Tryptophan B],328
11,UCUUGAGUAUAUGAUACCAGCAGUGAGAGACAGGAAGUAUAGUGAUGUUAUAUGAGAGAAUGCCCUUGGCAGCGUGUGCGGUGGG [SSTheophylB.S],187
12,AACUUGUUUGGAGGAUAUUCUUUAUUCGACAUAACCUUCUAUAAGGUGCAGUGAUGUUGCAAUAUAGGAGAAGGUCGAGUGAGAA [Exclusion FMN B Gf 16],219
13,GUAGCACUUGACAGUGAUGUUGUCAAGGACAAGGAUAUCAUCUCAAUGAGAAGGUGUCCUUGAUAACAGCUACGGGAAUAUCCCA [Omei KL FMN A Exc D v3],120
14,AAGUUGAACUGAAGGAGCGAGAAAUAGAAUGUAAGAAUAUAUGCUAGUGAUGUUAGAAAUUCUCAGGUAGGUCGCAGUAAGUUUU [V2],407
15,UGAUACCAGACUGAUACCAGCGAGUGAUGUUUGCUGAAAUCAGGGUCAAAGACCCUGUCUCGCCCUUGGCAGCAGUCUGGUAUCU [TheoBX 21 #SwitchBubble #StaticStem],223
16,AGAGCGGUCGAAGGAUAUGAGACAACCAACGGUGAGUGAUGUUUGCCGAGUAAACCUCUAGUUGCGUCAGAAGGUCGGCUCAGUC [theeternabot_sameState_KL_FMN_B_25],625

row,Sequence,apparent KD of K4 kissing-loop reporter [nM]
1,AAAUUCUUUUUUUUAUUUAAGUUUUCAGAAGGAGCGUGGUAGUACACAGGUAGGUCGCUGAAUUUUGGGCUAGUGAUGUUAGUUA [whbob_SS_Arginine_A_sa114],191
2,AAAACGCUGGAUGAAUAACAUCUAGCGAAUCGAGGACCGGUACGGCCGCCACUCGGAGCUAAACUGCGAGUGAUGUUCGUAAAAU [Mat - Mod of OpenEnded 3 - D18],426
3,CGCGUAUCGGCAGGAUAUGGAGUUGAGUGAUGUUCAGCAAUGGGUCAUCAUCUUUAUGACAAUCCACCAGAAGGGCCGAUACGCG,944
4,GAAACGUUGCGGACUAUCGCAUAAAGUCACCGAGGACCGGUACGGCCGCCACUCGCCAGUGAUGUUGGCGUGUUUGCGCGCUGUG [Titebebi],101
5,AAAUAUUCGAGUGAUGUUCGUUAAAUUACAGAGGAUAUGCUUAAAAGCAGAAGGCUGUAUUUCUAUUUGUUAUGUAAUUUUAAAA [JR_ExcFMNA_Sub004],196
6,AACCGAGGUAAUCCACAAAGAUAACAUGAUACCAGAUAUAUAAAUAUCCCUUGGCAGCAUGGCAUGAGUGAUGUUCAUGUGUCUU [KL-SSTheo-A10],269
7,GGAAGAAGUGGUGUUGAUUAAGAAGCGGAAGGAGCGCCGAAGAAGGCAGGUAGGUCGCCGAAAUAUAGUGAUGUUAUAUAAAAGG [ExArg.A],168
8,CGUGCCCGGCCGGAUACCAGUGACCCGCUGGGAACCGCGGGCCCAGAGUGAUGUUCGGGACACCCUUGGCAGCCGCCUGGGCGGC [#2 Same State - Theophylline B Attempt #13 (HarryS)],614
9,AUUCUUAUAAUAACACUAUAUACAACUGAAGGAGCGACAAUAAAGUCAGGUAGGUCGCAGAAUAAAUGAGUGAUGUUCAUUUUUA [JR_ExcArginiA_Sub011],150
10,GCGCGUCAUGUCAGCGGUGACACUGUCGAUACCAGUGCCGGAAGGCGCCCUUGGCAGCGACGUGCUGGAGUGAUGUUCCAGCGUU [#2 Exclusion - Theophylline A Attempt #28 (HarryS)],131
11,AAGCAGUCACUCGUAUCCAUCGAAGAUGGUCGAGGACCGGUACGGCCGCCACUCGGAGUGAUGUUCCGAAGACUGCAAAAUAAAA [#SwitchBubble 13],296
12,UGGUUUGGAAGUGAUGUUUCUAUAAGUGAUACCAGACAAAAGAAAGUCCCUUGGCAGCACAAUGAUGCCAAGGAAACGGCAUGAU [#15 K4 Theophylline A Same State],157
13,UAGCGUAUCAGAGGAUAUGAUAUGUUAUGCAGUGAUGUUGCAUGAUGUAGCAGAAUUCUGAGUGUAUCAGAAGGCUGAUAUGCUA [FMN B Ex t3],78.9
14,GCCGUAGAUUGAAGGAGCGUUCUUACUGAGUACGGCAACCGGAAGUGAUGUUUCCAGGUGGAACAGGUAGGUCGCAAUCUACGGC,88
15,AAGUGAUGUUGUAGUGAUGUUGUGAUGUUGCAGGAUAUAUAGUGAUGUAGAAGGGUAUGUGCAGUGUUGUUAUUUGAGUGUUGAU [zffdmullin],73.8
16,GGAUAGGAUAGAGGAUAUGGAAAACACAGAAAUAACUUGUUGUGUUUAUCCAUAGGGAGUGAUGUUCCAGAAGGCUGUCCUAUCG [MatMod 20 - Jieux - Exclusion - FMN B],219
